In FireProtDB (doi:10.1016/j.neuropharm.2010.07.001):
Several values for one entry are separate records, joined by “and”; a condition that tells them apart may be missing. Identical values can stand only once.

B1: Adenosine receptor A2a, P29274 (parent)
chain: MPIMGSSVYITVELAIAVLAILGNVLVCWAVWLNSNLQNVTNYFVVSLAAADIAVGVLAIPFAITISTGFCAACHGCLFIACFVLVLTQSSIFSLLAIAIDRYIAIRIPLRYNGLVTGTRAKGIIAICWVLSFAIGLTPMLGWNNCGQPKEGKNHSQGCGEGQVACLFEDVVPMNYMVYFNFFACVLVPLLLMLGVYLRIFLAARRQLKQMESQPLPGERARSTLQKEVHAAKSLAIIVGLFALCWLPLHIINCFTFFCPDCSHAPLWLMYLAIVLSHTNSVVNPFIYAYRIREFRQTFRKIIRSHVLRQQEPFKAAGTSARVLAAHGSDGEQVSLRLNGHPPGVWANGSAPHPERRPNGYALGLVSGGSAQESQGNTGLPDVELLSHELKGVCPEPPGLDDPLAQDGAGVS

Variants of: B1
Conditions: Homo sapiens; pH 7.5; Thermal; Tris-HCl 50 mM; NaCl 250 mM; structure 5NM2; whole UniProt chain shown

Variant | change of melting temperature, mutant - wild type (higher = more stable)
A54L T88A V239A K122A | 12 °C and 10 °C and 9 °C
